Source: patent US20190218304A1, “POTENTIATING THE EFFECT OF ATP RELEASE” (INNATE PHARMA, priority 2017, published 2019)

Key:
[1] = biological target: T1, soluble recombinant human CD39 protein (Homo sapiens, UniProt P49961); experiment: Inhibition of the enzymatic activity of soluble CD39 (Cell Titer Glo); type: biochemical; details: result in words
T1 construct: made in house; host or cells: CHO cells
T1 sequence (P49961 with tags, fused parts or gaps): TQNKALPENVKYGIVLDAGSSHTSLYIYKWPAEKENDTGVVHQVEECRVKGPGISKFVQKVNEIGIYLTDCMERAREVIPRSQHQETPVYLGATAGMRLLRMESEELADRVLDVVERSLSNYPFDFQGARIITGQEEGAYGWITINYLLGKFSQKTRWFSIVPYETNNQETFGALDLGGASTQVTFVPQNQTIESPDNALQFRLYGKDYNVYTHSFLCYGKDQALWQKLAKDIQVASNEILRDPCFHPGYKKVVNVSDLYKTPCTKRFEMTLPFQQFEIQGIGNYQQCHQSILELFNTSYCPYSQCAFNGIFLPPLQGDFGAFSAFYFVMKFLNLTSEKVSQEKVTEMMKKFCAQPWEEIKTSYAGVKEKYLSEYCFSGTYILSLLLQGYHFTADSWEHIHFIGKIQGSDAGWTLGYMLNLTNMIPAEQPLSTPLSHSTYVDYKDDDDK
Experimental: The inhibition by antibodies of the enzymatic activity of soluble CD39 protein produced was evaluated using Cell Titer Glo™ (Promega, reference G7571) that allows assessment of ATP hydrolysis through use of a reagent that generates a luminescent signal proportional to the amount of ATP present. In this way, inhibition of the soluble-CD39-meidatd ATP hydrolysis can be assessed. Briefly, dose ranges of anti-CD39 antibodies from 100 μg/ml to 6×10^−3 μg/ml were incubated with 400 ng/ml of soluble recombinant human CD39 protein having the amino acid sequence described in the Methods section (SEQ ID NO: 39), for 1 h at 37° C. 20 μM ATP was added to the plates for 30 additional minutes at 37° C. before addition of CTG (Cell Titer Glo) reagent. Emitted light was quantified using an Enspire™ luminometer after a short incubation period of 5 min in the dark. Anti-CD39 antibody efficacy was determined by comparing emitted light in presence of antibody with ATP alone (maximal light emission) and ATP together with soluble CD39 protein (minimal light emission).

[2] = system: CD39 mutants (Table 1) expressed in Hek-293T cells; experiment: Epitope mapping: flow cytometry binding to CD39 mutants in Hek-293T cells; set-up: species or system human
Experimental: CD39 mutants were generated by PCR. The sequences amplified were run on agarose gel and purified using the Macherey Nagel PCR Clean-Up Gel Extraction kit (reference 740609). The purified PCR products generated for each mutant were then ligated into an expression vector, with the ClonTech InFusion system. The vectors containing the mutated sequences were prepared as Miniprep and sequenced. After sequencing, the vectors containing the mutated sequences were prepared as Midiprep using the Promega PureYield™ Plasmid Midiprep System. HEK293T cells were grown in DMEM medium (Invitrogen), transfected with vectors using Invitrogen's Lipofectamine 2000 and incubated at 37° C. in a […] incubator for 48 hours prior to testing for transgene expression. The targeted amino acid mutations in the table 1 below are shown using numbering of SEQ ID NO: 1.
In order to define the epitopes of anti-CD39 antibodies, we designed CD39 mutants defined by substitutions of amino acids exposed at the molecular surface over the surface of CD39.
Mutant 5 contains amino acid substitutions at residues Q96, N99, E143 and R147.
Mutants were transfected in Hek-293T cells, as shown in the table 1, using numbering of SEQ ID NO: 1. […] Mutant 19 includes substitutions at residues R138, M139 and E142.
Mutants were transfected in Hek-293T cells, as shown in the table 1, using numbering of SEQ ID NO: 1. […]

B1: I-399: anti-CD39 antibody, VH SEQ ID NO: 27, VL SEQ ID NO: 28 (antibody, listed as Mus musculus, V domains shown)
VH: PVQLQQPGAEVVMPGASVKLSCKASGYTFTSFWMNWMRQRPGQGLEWIGEIDPSDFYTNSNQRFKGKATLTVDKSSSTAYMQLSSLTSEDSAVYFCARGDFGWYFDVWGTGTSVTVSS
VL: EIVLTQSPTTMTSSPGEKITFTCSASSSINSNYLHWYQQKPGFSPKLLIYRTSNLASGVPTRFSGSGSGTSYSLTIGTMEAEDVATYYCQQGSSLPRTFGGGTKLEIK
- inhibition of the enzymatic (ATPase) activity of soluble CD39 protein [1]: inhibition of soluble CD39
- binding to cells expressing mutant 11 of CD39 ([2]; mutant 11: N371K, L372K, E375A, K376G, V377A and insertion 377V): loss of binding
- binding to the other CD39 mutants of Table 1 ([2]; remaining mutants of the 20 generated): without loss of binding to any of the other 20 mutants
